Test results taken from US10196657B2, “Methods of producing 7-carbon chemicals via methyl-ester shielded carbon chain elongation” (INVISTA North America S.á r.l., priority 2012, dated 2019).

Legend:
Assay type in all cases: biochemical
[1] = Pimeloyl-[acp] methyl ester methylesterase activity assay, pimeloyl-CoA methyl ester to pimeloyl-CoA (LC-MS); conditions: 10 μM enzyme, 5 mM pimeloyl-CoA methyl ester, pH 7.0, 30° C., 1 h; FIG. 20
Experimental: A nucleotide sequence encoding a C-terminal His-tag was added to the gene from Escherichia coli encoding the pimeloyl-[acp] methylester methylesterase of SEQ ID NO: 17 (see FIG. 7H) such that a C-terminal HIS tagged pimeloyl-[acp] methyl ester methylesterase could be produced. The resulting modified gene was cloned into a pET28b+ expression vector under control of the T7 promoter and the expression vector was transformed into a BL21[DE3] E. coli host. The resulting recombinant E. coli strain was cultivated at 37° C. in a 500 mL shake flask culture containing 100 mL LB media and antibiotic selection pressure, with shaking at 230 rpm. Each culture was induced overnight at 18° C. using 0.3 mM IPTG.
The pellet from each induced shake flask culture was harvested via centrifugation. Each pellet was resuspended and lysed via sonication. The cell debris was separated from the supernatant via centrifugation. […]
Enzyme activity assays converting pimeloyl-CoA methyl ester to pimeloyl-CoA were performed in triplicate in a buffer composed of a final concentration of 25 mM Tris.HCl buffer (pH=7.0) and 5 [mM] pimeloyl-CoA methyl ester. […] The formation of pimeloyl-CoA was quantified via LC-MS.

[2] = Carboxylate reductase activity assay, N7-acetyl-7-aminoheptanoate to N7-acetyl-7-aminoheptanal; conditions: purified enzyme enhanced by sfp gene product, 2 mM substrate, room temperature, 20 min; against empty vector control; FIG. 12
Experimental: The activity of each of the N-terminal His-tagged carboxylate reductases of SEQ ID NOs: 3, 6, and 7 (see Examples 4, and FIGS. 7B, 7E, and 7F) for converting N7-acetyl-7-aminoheptanoate to N7-acetyl-7-aminoheptanal was assayed in triplicate in a buffer composed of a final concentration of 50 mM HEPES buffer (pH=7.5), 2 mM N7-acetyl-7-aminoheptanoate, 10 mM MgCl2, 1 mM ATP, and 1 mM NADPH. The assays were initiated by adding purified carboxylate reductase and phosphopantetheine transferase or the empty vector control to the assay buffer containing the N7-acetyl-7-aminoheptanoate then incubated at room temperature for 20 min. The consumption of NADPH was monitored by absorbance at 340 nm.

[3] = Carboxylate reductase activity assay, pimelate semialdehyde to heptanedial; conditions: purified enzyme enhanced by sfp gene product, 2 mM pimelate semialdehyde, room temperature, 20 min; against empty vector control; FIG. 13
Experimental: The N-terminal His-tagged carboxylate reductase of SEQ ID NO 7 (see Example 4 and FIG. 7F) was assayed using pimelate semialdehyde as substrate. The enzyme activity assay was performed in triplicate in a buffer composed of a final concentration of 50 mM HEPES buffer (pH=7.5), 2 mM pimelate semialdehyde, 10 mM MgCl2, 1 mM ATP and 1 mM NADPH. The enzyme activity assay reaction was initiated by adding purified carboxylate reductase and phosphopantetheine transferase or the empty vector control to the assay buffer containing the pimelate semialdehyde and then incubated at room temperature for 20 min. The consumption of NADPH was monitored by absorbance at 340 nm.

[4] = Carboxylate reductase activity assay, pimelate to pimelate semialdehyde (NADPH consumption); conditions: purified enzyme enhanced by sfp gene product, 2 mM pimelate, room temperature, 20 min; against empty vector control; FIG. 10
Experimental: A sequence encoding a HIS-tag was added to the genes from Segniliparus rugosus and Segniliparus rotundus that encode the carboxylate reductases of SEQ ID NOs: 4 and 7, respectively (see FIGS. 7C and 7F), such that N-terminal HIS tagged carboxylate reductases could be produced. Each of the modified genes was cloned into a pET Duet expression vector along with a sfp gene encoding a HIS-tagged phosphopantetheine transferase from Bacillus subtilis, both under the T7 promoter. Each expression vector was transformed into a BL21[DE3] E. coli host and the resulting recombinant E. coli strains were cultivated at 37° C. in a 250 mL shake flask culture containing 50 mL LB media and antibiotic selection pressure, with shaking at 230 rpm. Each culture was induced overnight at 37° C. using an auto-induction media.
The pellet from each induced shake flask culture was harvested via centrifugation. Each pellet was resuspended and lysed via sonication, and the cell debris was separated from the supernatant via centrifugation. […]
Enzyme activity assays (i.e., from pimelate to pimelate semialdehyde) were performed in triplicate in a buffer composed of a final concentration of 50 mM HEPES buffer (pH=7.5), 2 mM pimelate, 10 mM MgCl2, 1 mM ATP and 1 mM NADPH. […] The consumption of NADPH was monitored by absorbance at 340 nm.

| acceptance of pimelate as substrate (NADPH consumption, absorbance at 340 nm) [4] | Molecule | acceptance of pimeloyl-CoA methyl ester as substrate, forming pimeloyl-CoA (LC-MS) [1] | acceptance of N7-acetyl-7-aminoheptanoate as substrate (NADPH consumption, absorbance at 340 nm) [2] | acceptance of pimelate semialdehyde as substrate, forming heptanedial (NADPH consumption, absorbance at 340 nm) [3] |
| --- | --- | --- | --- | --- |
| – | SEQ ID NO. 17: Escherichia coli pimelyl-[acp] methyl ester esterase, GenBank Accession No. AAC76437.1 (protein, listed as Escherichia coli) MNNIWWQTKGQGNVHLVLLHGWGLNAEVWRCIDEELSSHFTLHLVDLPGFGRSRGFGALSLADMAEAVLQQAPDKAIWLGWSLGGLVASQIALTHPERVQALVTVASSPCFSARDEWPGIKPDVLAGFQQQLSDDFQRTVERFLALQTMGTETARQDARALKKTVLALPMPEVDVLNGGLEILKTVDLRQPLQNVSMPFLRLYGYLDGLVPRKVVPMLDKLWPHSESYIFAKAAHAPFISHPAEFCHLLVALKQRV | accepted pimeloyl-CoA methyl ester as substrate | – | – |
| accepted pimelate as substrate | SEQ ID NO 7: Segniliparus rotundus carboxylate reductase, Genbank Accession No. ADG98140.1 (protein, listed as Segniliparus rotundus) MTQSHTQGPQASAAHSRLARRAAELLATDPQAAATLPDPEVVRQATRPGLRLAERVDAILSGYADRPALGQRSFQTVKDPITGRSSVELLPTFDTITYRELRERATAIASDLAHHPQAPAKPGDFLASIGFISVDYVAIDIAGVFAGLTAVPLQTGATLATLTAITAETAPTLFAASIEHLPTAVDAVLATPSVRRLLVFDYRAGSDEDREAVEAAKRKIADAGSSVLVDVLDEVIARGKSAPKAPLPPATDAGDDSLSLLIYTSGSTGTPKGAMYPERNVAHFWGGVWAAAFDEDAAPPVPAINITFLPLSHVASRLSLMPTLARGGLMHFVAKSDLSTLFEDLKLARPTNLFLVPRVVEMLYQHYQSELDRRGVQDGTREAEAVKDDLRTGLLGGRILTAGFGSAPLSAELAGFIESLLQIHLVDGYGSTEAGPVWRDGYLVKPPVTDYKLIDVPELGYFSTDSPHPRGELAIKTQTILPGYYKRPETTAEVFDEDGFYLTGDVVAQIGPEQFAYVDRRKNVLKLSQGEFVTLAKLEAAYSSSPLVRQLFVYGSSERSYLLAVIVPTPDALKKFGVGEAAKAALGESLQKIARDEGLQSYEVPRDFIIETDPFTVENGLLSDARKSLRPKLKEHYGERLEAMYKELADGQANELRDIRRGVQQRPTLETVRRAAAAMLGASAAEIKPDAHFTDLGGDSLSALTFSNFLHDLFEVDVPVGVIVSAANTLGSVAEHIDAQLAGGRARPTFATVHGKGSTTIKASDLTLDKFIDEQTLEAAKHLPKPADPPRTVLLTGANGWLGRFLALEWLERLAPAGGKLITIVRGKDAAQAKARLDAAYESGDPKLAGHYQDLAATTLEVLAGDFSEPRLGLDEATWNRLADEVDFISHPGALVNHVLPYNQLFGPNVAGVAEIIKLAITTRIKPVTYLSTVAVAAGVEPSALDEDGDIRTVSAERSVDEGYANGYGNSKWGGEVLLREAHDRTGLPVRVFRSDMILAHQKYTGQVNATDQFTRLVQSLLATGLAPKSFYELDAQGNRQRAHYDGIPVDFTAESITTLGGDGLEGYRSYNVFNPHRDGVGLDEFVDWLIEAGHPITRIDDYDQWLSRFETSLRGLPESKRQASVLPLLHAFARPGPAVDGSPFRNTVFRTDVQKAKIGAEHDIPHLGKALVLKYADDIKQLGLL | – | accepted N7-acetyl-7-aminoheptanoate as substrate | accepted pimelate semialdehyde as substrate |
